Data from patent US9222143.

Target: CD11b/CD18 receptor on J774A.1 murine monocytes/macrophages (murine) (UniProt P05555)
Assay: cell-based or functional assay

CyaA/233OVA/K860R/AC- (from UniProt J7QLC0 1-1706)
Lysis of J774A.1 cells (% of AC-): 72 % of AC-
